Laboratory results from patent US5747334.
No end group written: not given here.

How the values were obtained:
[1] = target: 7E11-C5 monoclonal antibody; experiment: competitive ELISA, LNCaP extract on plate
[2] = target: 7E11-C5 monoclonal antibody; experiment: competitive ELISA, peptide 1.75-1130 nM pre-incubated with 7E11-C5 at 30 ng/ml (0.2 nM), LNCaP extract on plate

molar ratio of peptide to monovalent binding site on the antibody at the IC50 [1]: 400
IC50 [2]: 160 nM
B1: peptide SEQ ID NO 31 (amide form) (peptide)
peptide: LYANPGMYSRLHSPA-NH2
